Experimental data from patent US6297019, “Recombinant polynucleotides encoding CYP7 promoter-binding factors” (Tularik Inc.).

Target: T1, CPF (clone 113) (Homo sapiens)
T1 chain: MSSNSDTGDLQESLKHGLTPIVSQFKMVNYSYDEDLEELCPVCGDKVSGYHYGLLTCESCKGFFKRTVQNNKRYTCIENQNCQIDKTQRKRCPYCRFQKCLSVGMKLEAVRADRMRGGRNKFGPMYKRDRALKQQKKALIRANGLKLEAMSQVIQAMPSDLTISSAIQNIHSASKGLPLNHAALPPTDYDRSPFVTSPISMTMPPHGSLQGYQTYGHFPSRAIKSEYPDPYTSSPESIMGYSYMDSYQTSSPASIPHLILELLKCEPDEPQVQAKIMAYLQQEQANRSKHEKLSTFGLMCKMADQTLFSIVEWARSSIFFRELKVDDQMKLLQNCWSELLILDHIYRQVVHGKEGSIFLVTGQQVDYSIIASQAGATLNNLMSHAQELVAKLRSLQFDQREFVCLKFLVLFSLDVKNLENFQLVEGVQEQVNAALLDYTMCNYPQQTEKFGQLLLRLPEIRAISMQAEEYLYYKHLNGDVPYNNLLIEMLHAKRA
Assay: EMSA; same DNA sequence as endogenous protein; exact probe not stated; complex disrupted by anti-CPF antibody
Conditions: tags: TNT in vitro transcription/translation; label: 32P
Text: Characterization of CPF. Clone #113 encodes a full length polypeptyde of 495 amino acids, with an in-frame stop codon 30 nucleotides upstream of the first ATG. We named the protein as CPF for CYP7 Promoter-binding Factor. […] The closest homologs of CPF are the mouse version of the family, LRH-1 (SEQ ID NOS:7, 8)and a human variant, hFTF (SEQ ID NOS:9, 10). To confirm the cloned CPF is the factor responsible for the CYP7 promoter binding activity, in vitro translated CPF was used side-by-side with the HepG2 nuclear extracts in gel shift experiments. We found in vitro translated CPF recognized the same DNA sequence as the endogenous protein does and the gel shift patterns between these two appear to be identical. Antibodies raised against a peptide containing the Ftz-F1 box were used in gel shift experiments. We found the DNA-protein complex formed either with HepG2 nuclear extracts or with in vitro translated CPF was disrupted by the specific antibody but not by preimmune serum. Furthermore, the antibody recognized a hepatic-specific cellular protein that comigrates with the in vitro translated CPF. The endogenous gene product recognized by the Ftz-F1-specific antibody is apparently hepatic specific since there is no corresponding protein in 293 cells.

B1: CYP7 promoter wild-type oligo (dsDNA)
DNA 1: TCTGATACCTGTGGACTTAGTTCAAGGCCAGTTA
DNA 2: TAACTGGCCTTGAACTAAGTCCACAGGTATCAGA
B1: binds.
